By Kd is commonly meant the equilibrium constant for the complex coming apart. A higher Kd goes with weaker binding.

These results are taken from article PMC4769027 (Journal of structural biology, 2016).

The assay concerns the target wild-type IgG1 Fc (human, UniProt P01857 108-328 = IgG part, N-linked glycan at Asn297). The assay is described as follows: SPR.

B1: FcγRIIb ectodomain (receptor, human, UniProt P31994 43-217, looked up)
chain: TPAAPPKAVLKLEPQWINVLQEDSVTLTCRGTHSPESDSIQWFHNGNLIPTHTQPSYRFKANNNDSGEYTCQTGQTSLSDPVHLTVLSEWLVLQTPHLEFQEGETIVLRCHSWKDKPLVKVTFFQNGKSKKFSRSDPNFSIPQANHSHSGDYHCTGNIGYTLYSSKPVTITVQAP
Consider B1, for which binding was characterised by a dissociation constant (Kd) of 9.28 µM.

B2: FcγRIIa H131 variant ectodomain (receptor, human, UniProt P12318 34-211, looked up)
chain: QAAAPPKAVLKLEPPWINVLQEDSVTLTCQGARSPESDSIQWFHNGNLIPTHTQPSYRFKANNNDSGEYTCQTGQTSLSDPVHLTVLSEWLVLQTPHLEFQEGETIMLRCHSWKDKPLVKVTFFQNGKSQKFSHLDPTFSIPQANHSHSGDYHCTGNIGYTLFSSKPVTITVQVPSMG
B2 came in with a dissociation constant (Kd) of 4.49 µM.
